Assay results from EP4574844A1 (Numab Therapeutics AG, dated 2025).

B1: PRO3744 (scFv)
scFv: DVQMTQSPSSLSASVGDRVTITCQASQSIGSNLAWYQQKPGKPPKLLIYKGGTLESGVPSRFSGSGSGTDFTLTISSLQPEDFATYYCQSTAGSSRSGNYGYVFGCGTKVTVLGGGGGSGGGGSGGGGSGGGGSQQLVESGGGLVQPGGSLRLSCAASGFSFTNNYYMCWVRQAPGKCLEWIACMLVGAWGNTYYASWANGRFTISKDNSKNTVYLQMNSLRAEDSAVYFCARARDYTWTLGGDPETSGFNLWGQGTLVKVSS
notes: anti-LILRB2 scFv; also called 68-18-E11-sc07
B2: PRO5052 (antibody)
chain 1: DVQMTQSPSSLSASVGDRVTITCQASQSISSWVSWYQQKPGKPPKLLIYRGGYLESGVPSRFSASGSGTDFTLTISSLQPEDFATYYCQSTDSSTYGGAFGCGTKVTVLGGGGGSGGGGSGGGGSGGGGSQQVVESGGGLVQPGGSLRLSCAVSGIDLNSYAMTWVRQAPGKCLEWIGYIGSASSTYYASWASGRFTISKDNSKNTVYLQMNSLRAEDSAVYFCARGSTYINIWGQGTLVKVSSEPKSSDKTHTCPPCPAPELLGGPSVFLFPPKPKDTLMISRTPEVTCVVVDVSHEDPEVKFNWYVDGVEVHNAKTKPREEQYNSTYRVVSVLTVLHQDWLNGKEYKCKVSNKALPAPIEKTISKAKGQPREPQVYTLPPCREEMTKNQVSLSCAVKGFYPSDIAVEWESNGQPENNYKTTPPVLDSDGSFFLVSKLTVDKSRWQQGNVFSCSVMHEALHNHYTQKSLSLSPGKGGGGSGGGGSDVQMTQSPSSLSASVGDRVTITCQASQSIGSNLAWYQQKPGKPPKLLIYKGGTLESGVPSRFSGSGSGTDFTLTISSLQPEDFATYYCQSTAGSSRSGNYGYVFGCGTKVTVLGGGGGSGGGGSGGGGSGGGGSQQLVESGGGLVQPGGSLRLSCAASGFSFTNNYYMCWVRQAPGKCLEWIACMLVGAWGNTYYASWANGRFTISKDNSKNTVYLQMNSLRAEDSAVYFCARARDYTWTLGGDPETSGFNLWGQGTLVKVSS
chain 2: not shown
notes: trispecific anti-PDL1 x CD47 x LILRB2, (scFv)2-Fc-(scFv)2; also called PRO4672 with 33-03-G02-based PDL1-BD
B3: PRO5055 (antibody, human IgG1, kappa)
chain: DVQMTQSPSSLSASVGDRVTITCQASQSISSWVSWYQQKPGKPPKLLIYRGGYLESGVPSRFSASGSGTDFTLTISSLQPEDFATYYCQSTDSSTYGGAFGCGTKVTVLGGGGGSGGGGSGGGGSGGGGSQQVVESGGGLVQPGGSLRLSCAVSGIDLNSYAMTWVRQAPGKCLEWIGYIGSASSTYYASWASGRFTISKDNSKNTVYLQMNSLRAEDSAVYFCARGSTYINIWGQGTLVKVSSEPKSSDKTHTCPPCPAPELLGGPSVFLFPPKPKDTLMISRTPEVTCVVVDVSHEDPEVKFNWYVDGVEVHNAKTKPREEQYNSTYRVVSVLTVLHQDWLNGKEYKCKVSNKALPAPIEKTISKAKGQPREPQVYTLPPCREEMTKNQVSLSCAVKGFYPSDIAVEWESNGQPENNYKTTPPVLDSDGSFFLVSKLTVDKSRWQQGNVFSCSVMHEALHNHYTQKSLSLSPGKGGGGSGGGGSDVQMTQSPSSLSASVGDRVTITCQASQSIGSNLAWYQQKPGKPPKLLIYKGGTLESGVPSRFSGSGSGTDFTLTISSLQPEDFATYYCQSTAGSSRSGNYGYVFGCGTKVTVLGGGGGSGGGGSGGGGSGGGGSQQLVESGGGLVQPGGSLRLSCAASGFSFTNNYYMCWVRQAPGKCLEWIACMLVGAWGNTYYASWANGRFTISKDNSKNTVYLQMNSLRAEDSAVYFCARARDYTWTLGGDPETSGFNLWGQGTLVKVSS
heavy: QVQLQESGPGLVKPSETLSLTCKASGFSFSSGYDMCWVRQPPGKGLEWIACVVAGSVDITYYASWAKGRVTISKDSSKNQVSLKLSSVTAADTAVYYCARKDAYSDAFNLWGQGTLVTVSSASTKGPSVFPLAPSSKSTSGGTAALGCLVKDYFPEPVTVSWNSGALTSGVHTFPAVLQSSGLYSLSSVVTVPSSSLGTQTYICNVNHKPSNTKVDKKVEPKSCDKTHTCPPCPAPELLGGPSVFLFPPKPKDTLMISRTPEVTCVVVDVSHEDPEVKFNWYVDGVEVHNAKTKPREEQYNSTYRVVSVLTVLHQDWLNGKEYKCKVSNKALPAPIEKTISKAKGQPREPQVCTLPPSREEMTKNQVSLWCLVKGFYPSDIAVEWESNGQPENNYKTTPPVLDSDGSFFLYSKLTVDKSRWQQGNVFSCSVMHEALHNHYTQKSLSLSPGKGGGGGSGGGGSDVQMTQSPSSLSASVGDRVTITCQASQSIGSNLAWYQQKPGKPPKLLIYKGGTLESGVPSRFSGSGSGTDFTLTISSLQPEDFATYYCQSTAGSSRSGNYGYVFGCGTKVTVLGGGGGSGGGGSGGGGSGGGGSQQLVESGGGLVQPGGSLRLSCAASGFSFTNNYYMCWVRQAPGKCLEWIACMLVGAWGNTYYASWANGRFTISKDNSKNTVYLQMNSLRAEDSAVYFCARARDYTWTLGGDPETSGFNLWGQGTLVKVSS
light: DIQMTQSPSSLSASVGDRVTITCQASQSINDYLAWYQQKPGKAPKLLIYKGGTLASGVPSRFSGSGSGTDFTLTISSLQPEDFATYYCQQGYIITDIDNVFGQGTKVEIKRTVAAPSVFIFPPSDEQLKSGTASVVCLLNNFYPREAKVQWKVDNALQSGNSQESVTEQDSKDSTYSLSSTLTLSKADYEKHKVYACEVTHQGLSSPVTKSFNRGEC
notes: trispecific anti-PDL1 x CD47 x LILRB2; PDL1-BD as Fab; also called PRO4687 with 33-03-G02-based PDL1-BD
B4: PRO1392 (scFv)
scFv: DIQMTQSPSSLSASVGDRVTITCQASQSINDYLAWYQQKPGKAPKLLIYKASTLASGVPSRFSGSGSGTDFTLTISSLQPEDFATYYCQQGYIITDIDNVFGTGTKVTVLGGGGGSGGGGSGGGGSGGGGSQVQLQESGPGLVKPSETLSLTCKASGFSFSSGYDMCWVRQPPGKGLEWIACVVAGSVDITYYASWAKGRVTISKDSSKNQVSLKLSSVTAADTAVYYCARKDAYSDAFNLWGQGTLVTVSS
notes: anti-PDL1 scFv (VL-linker-VH); also called 33-03-G02-sc18
B5: PRO3696 (scFv)
scFv: DVQMTQSPSSLSASVGDRVTITCQASQSIGLNLAWYQQKPGKPPKLLIYAGGYLASGVSSRFSGSGSGTDFTLTISSLQPEDFATYYCQSTYDGSSFVFAFGTGTKVTVLGGGGGSGGGGSGGGGSGGGGSQEQLVESGGGLVQPGGSLRLSCAASGFSFSSSSYMCWVRQAPGKGLEWIACMVTGSSDDTDYASWAKGRFTISKDNSKNTVYLQMNSLRAEDSAVYFCARAGSAPLWGQGTLVKVSS
notes: anti-LILRB2 scFv; also called 69-01-E02-sc06

Experiments:
[1] = target: T1, human LILRB2 on the cell surface (human, UniProt Q8N423 22-597); experiment: flow cytometry, CHO cells expressing LILRB2; competitor HLA-G tetramer; reference PRO2518
T1 construct: whole, on cells; also called CHO K1 cells expressing human LILRB2; LILRB2 on HMDMs
T1 sequence (Q8N423 22-597): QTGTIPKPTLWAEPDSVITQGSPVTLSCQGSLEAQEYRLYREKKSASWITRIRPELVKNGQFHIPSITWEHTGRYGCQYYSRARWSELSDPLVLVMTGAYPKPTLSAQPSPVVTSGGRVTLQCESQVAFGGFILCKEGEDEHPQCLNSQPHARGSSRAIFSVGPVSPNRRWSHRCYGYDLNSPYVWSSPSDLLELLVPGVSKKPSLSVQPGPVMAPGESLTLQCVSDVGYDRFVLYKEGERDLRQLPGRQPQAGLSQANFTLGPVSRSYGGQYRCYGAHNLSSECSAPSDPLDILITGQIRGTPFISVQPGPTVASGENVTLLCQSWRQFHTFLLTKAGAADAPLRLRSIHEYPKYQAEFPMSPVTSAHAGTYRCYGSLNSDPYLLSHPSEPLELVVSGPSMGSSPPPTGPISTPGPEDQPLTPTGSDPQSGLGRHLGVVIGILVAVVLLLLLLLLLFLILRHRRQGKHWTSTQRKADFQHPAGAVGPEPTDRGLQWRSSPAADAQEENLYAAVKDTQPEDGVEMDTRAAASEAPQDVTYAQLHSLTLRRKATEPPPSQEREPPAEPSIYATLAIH

[2] = target: T1, human LILRB2 on the cell surface; experiment: flow cytometry, CHO cells expressing LILRB2; competitor HLA-A0301 dextramer
[3] = target: T2, recombinant human LILRB2 (human, UniProt Q8N423 22-460, limits assumed); experiment: SPR, LILRB2 immobilised, scFv as analyte
T2 construct: also called ILT4
T2 sequence (Q8N423 22-460 limits assumed): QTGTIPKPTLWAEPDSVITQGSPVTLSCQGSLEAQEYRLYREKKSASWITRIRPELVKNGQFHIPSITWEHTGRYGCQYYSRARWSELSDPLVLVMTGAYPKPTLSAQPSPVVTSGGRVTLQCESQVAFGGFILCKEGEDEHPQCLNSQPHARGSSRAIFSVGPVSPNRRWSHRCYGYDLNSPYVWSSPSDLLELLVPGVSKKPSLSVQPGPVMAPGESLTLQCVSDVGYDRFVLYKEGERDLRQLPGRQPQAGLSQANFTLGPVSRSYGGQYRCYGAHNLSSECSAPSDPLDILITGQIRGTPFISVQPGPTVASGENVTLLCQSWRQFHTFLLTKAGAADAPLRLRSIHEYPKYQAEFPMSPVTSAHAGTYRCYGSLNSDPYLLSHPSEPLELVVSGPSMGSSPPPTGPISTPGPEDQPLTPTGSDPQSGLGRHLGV

[4] = target: T1, human LILRB2 on the cell surface; experiment: flow cytometry, CHO cells expressing LILRB2; competitor HLA-G tetramer
[5] = target: T1, human LILRB2 on the cell surface; experiment: flow cytometry, CHO K1 cells expressing human LILRB2
[6] = target: T2, recombinant human LILRB2; experiment: SPR, antibody captured by anti-framework IgG, antigen as analyte (without avidity)
[7] = target: T1, human LILRB2 on the cell surface; experiment: cell-based or functional assay
[8] = target: T3, human CD47 on the cell surface (human, UniProt Q08722 19-323); experiment: cell-based or functional assay
[9] = target: T4, human PD-L1 on the cell surface (human, UniProt Q9NZQ7 19-290); experiment: cell-based or functional assay
[10] = target: T3, human CD47 on the cell surface; experiment: cell-based or functional assay; remark: listed apart in the source
[11] = target: T1, human LILRB2 on the cell surface; experiment: cell-based or functional assay; remark: listed apart in the source
[12] = target: T5, recombinant human PDL1 (human, UniProt Q9NZQ7 19-238, limits assumed); experiment: SPR, antigen immobilised, antibody as analyte
T5 construct: SPR antigen; also called CD274; B7-H1

[13] = target: T6, recombinant cynomolgus PDL1 (cynomolgus monkey, UniProt G7PSE7 19-238); experiment: SPR, antigen immobilised, antibody as analyte
T6 construct: also called cynom; PDL1
T6 sequence (G7PSE7 entry or part of it): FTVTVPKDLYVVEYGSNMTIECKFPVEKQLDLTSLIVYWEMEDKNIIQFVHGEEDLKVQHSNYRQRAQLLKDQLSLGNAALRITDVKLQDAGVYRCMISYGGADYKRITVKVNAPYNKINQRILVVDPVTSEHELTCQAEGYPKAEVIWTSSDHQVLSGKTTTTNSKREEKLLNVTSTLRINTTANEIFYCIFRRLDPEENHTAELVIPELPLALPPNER

[14] = target: T7, recombinant cynomolgus CD47 (cynomolgus monkey, UniProt A0A2K5X523 19-139); experiment: SPR, antigen immobilised, antibody as analyte
T7 construct: also called cynom; CD47

[15] = target: recombinant human CD47 (human, UniProt Q08722 19-139, limits assumed); experiment: SPR, antigen immobilised, antibody as analyte
[16] = target: T8, Fc-tagged human PDL2 (human, UniProt Q9BQ51 20-220, limits assumed); experiment: SPR, Fc-tagged human PDL2 captured, scFv as analyte
T8 sequence (looked up): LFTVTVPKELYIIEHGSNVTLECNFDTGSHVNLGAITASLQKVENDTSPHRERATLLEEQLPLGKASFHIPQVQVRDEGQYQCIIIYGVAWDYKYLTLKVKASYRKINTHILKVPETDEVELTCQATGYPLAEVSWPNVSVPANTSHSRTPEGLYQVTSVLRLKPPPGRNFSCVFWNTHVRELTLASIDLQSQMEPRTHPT

[17] = target: T4, human PD-L1 on the cell surface; experiment: cell-based or functional assay; remark: listed apart in the source
[18] = target: T5, recombinant human PDL1; experiment: SPR
[19] = target: T6, recombinant cynomolgus PDL1; experiment: SPR

Binder	Rel. max. inhibition % (rel. to J-19) [1] [%]	IC50 [2] [nM]	Kd [3] [nM]	koff [3] [s⁻¹]	kon [3] [M⁻¹ s⁻¹]	IC50 [4] [nM]	EC50 [5] [nM]	Kd [6] [nM]	koff [6] [s⁻¹]	kon [6] [M⁻¹ s⁻¹]	IL-1β EC50 [nM], LPS-driven cytokine secretion [7] [nM]	IL-6 EC50 [nM], LPS-driven cytokine secretion [7] [nM]	TNF-α EC50 [nM], LPS-driven cytokine secretion [7] [nM]	CD47 driven EC50 [nM], phagocytosis of A375 cells [8] [nM]	PD-L1 driven EC50 [nM], phagocytosis of H292 cells [9] [nM]	CD47 driven EC50 [nM], phagocytosis of H292 cells [10] [nM]	CD47 driven EC50 [nM], phagocytosis of RBCs [10] [nM]	CD86 EC50 [nM], re-polarization of M2 macrophages [11] [nM]	CD163 EC50 [nM], re-polarization of M2 macrophages [11] [nM]	CD206 EC50 [nM], re-polarization of M2 macrophages [11] [nM]	further results
B1	99.1	0.893	0.148	0.000114	771000	0.973	0.881														
B2								0.19	5.4e-05	290000	0.082	0.077	0.117	19.3	0.2	10.9	39.8	0.082	0.073	0.134	Kd [12]: 0.013 nM; koff [12]: 2.9e-05 s⁻¹; kon [12]: 2.3e+06 M⁻¹ s⁻¹; Kd [13]: 0.012 nM; Kd [14]: 32 nM; Kd [15]: 34 nM; koff [15]: 0.022 s⁻¹; kon [15]: 660000 M⁻¹ s⁻¹
B3								0.35	9.2e-05	260000	0.0705	0.063	0.141	12.1	0.19	10.9	44.6	0.085	0.058	0.128	Kd [12]: 0.016 nM; koff [12]: 3.3e-05 s⁻¹; kon [12]: 2.2e+06 M⁻¹ s⁻¹; Kd [13]: 0.0084 nM; Kd [14]: 21 nM; Kd [15]: 21 nM; koff [15]: 0.011 s⁻¹; kon [15]: 510000 M⁻¹ s⁻¹
B4																					binding result [16]: no binding (tested: 180 nM); PDL1/PD-1 EC50 [nM], NFAT reporter gene assay [17]: 0.97 nM; PDL1/PD-1 Max. inhibition (rel. to avelumab) [%] [17]: 104%; Kd [18]: 0.0086 nM; koff [18]: 4.8e-05 s⁻¹; kon [18]: 5.6e+06 M⁻¹ s⁻¹; Kd [19]: 0.0065 nM; koff [19]: 3.4e-05 s⁻¹; kon [19]: 5.2e+06 M⁻¹ s⁻¹
B5	98.4	0.867	0.226	0.000166	736000	1.08	0.796														
